Molecular target: zebrafish ΔP2X4-B (zebrafish) (UniProt F8W463)
Assay: crystal structure

zebrafish ΔP2X4-B (from UniProt F8W463 1-389) (receptor)
stoichiometry N: 3

From publication PMC3391165
